Data from patent publication US20260167699A1 (Chugai, published 2026).
Substitutions are numbered along the chain they refer to. In names and notes the source's numbering stands. Read-outs that look alike come from different tables or passages of the source. Values belong to the binder of their own block, whether it stands above or below them.

How the values were obtained:
[1] = molecular target: T1, FcγRIIa(H) extracellular domain with C-terminal His tag (human, UniProt P12318 34-217); assay: SPR (Biacore), captured antibody, FcγR analyte, 1:1 Langmuir fit
T1 construct: extracellular domain; polymorphic form H131; also called FcγRIIa H type
T1 sequence: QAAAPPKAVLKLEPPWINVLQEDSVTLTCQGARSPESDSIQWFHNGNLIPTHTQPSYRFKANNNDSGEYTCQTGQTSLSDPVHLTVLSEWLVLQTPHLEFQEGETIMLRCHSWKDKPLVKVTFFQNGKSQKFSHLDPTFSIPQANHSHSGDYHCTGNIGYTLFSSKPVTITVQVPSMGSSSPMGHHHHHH
Protocol: (§1) The antibody of interest was analyzed for its interaction with FcγR using a BiaCore™ T100, BiaCore™ A100, or BiaCore™ 4000 surface plasmon resonance system (GE Healthcare Japan Corp.). The running buffer used was HBS-EP+ (GE Healthcare Japan Corp.). The assay temperature was set to 25° C. The sensor chips used were: a chip prepared by immobilizing antigenic peptides onto Series S Sensor Chip CM5 (GE Healthcare Japan Corp.) by the amine coupling method; a chip prepared by immobilizing antigenic peptides biotinylated in advance onto Series S Sensor Chip SA (certified) (GE Healthcare Japan Corp.) through their interaction; a chip prepared by immobilizing protein L (ACTIGEN, BioVision, Inc.) onto Series S Sensor Chip CM5 (GE Healthcare Japan Corp.); and a chip prepared by immobilizing protein A/G (Thermo Fisher Scientific K.K.) onto Series S Sensor Chip CM5 (GE Healthcare Japan Corp.). The antibody of interest was captured onto any of these chips and allowed to interact with FcγR diluted with a running buffer. The antibody captured on the chip was washed off through the reaction of 10 mM glycine-HCl (pH 1.5) to regenerate the chip, which was repetitively used.

[2] = molecular target: T2, FcγRIIb extracellular domain with C-terminal His tag (human, UniProt P31994 43-217); assay: as above
T2 construct: extracellular domain
T2 sequence: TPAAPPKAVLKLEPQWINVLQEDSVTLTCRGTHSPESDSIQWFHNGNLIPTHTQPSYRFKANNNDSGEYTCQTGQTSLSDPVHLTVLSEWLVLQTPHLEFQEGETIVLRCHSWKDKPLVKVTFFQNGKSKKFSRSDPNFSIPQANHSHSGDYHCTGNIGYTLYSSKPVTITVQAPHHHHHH
Protocol: as §1

[3] = molecular target: T3, FcγRIa extracellular domain with C-terminal His tag (human, UniProt P12314 16-292); assay: as above
T3 construct: extracellular domain
T3 sequence (P12314 other isoform, or with tags, fused parts or gaps): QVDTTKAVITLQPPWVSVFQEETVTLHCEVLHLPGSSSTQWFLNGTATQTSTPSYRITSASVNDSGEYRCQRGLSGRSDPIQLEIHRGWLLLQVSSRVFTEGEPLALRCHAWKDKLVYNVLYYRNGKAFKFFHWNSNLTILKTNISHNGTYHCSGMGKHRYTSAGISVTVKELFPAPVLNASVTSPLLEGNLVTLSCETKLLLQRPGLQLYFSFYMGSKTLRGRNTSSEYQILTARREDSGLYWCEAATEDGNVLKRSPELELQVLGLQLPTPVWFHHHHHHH
Protocol: as §1

[4] = molecular target: T4, FcγRIIa(R) extracellular domain with C-terminal His tag (human, UniProt P12318 34-217); assay: as above
T4 construct: extracellular domain; polymorphic form R131; also called FcγRIIa R type
T4 sequence: T1 sequence with H134R
Protocol: as §1

[5] = molecular target: T5, FcγRIIIa(F) extracellular domain with C-terminal His tag (human, UniProt P08637 17-208); assay: as above
T5 construct: extracellular domain; polymorphic form F158; also called FcγRIIIa F type
T5 sequence (P08637 other isoform, or with tags, fused parts or gaps): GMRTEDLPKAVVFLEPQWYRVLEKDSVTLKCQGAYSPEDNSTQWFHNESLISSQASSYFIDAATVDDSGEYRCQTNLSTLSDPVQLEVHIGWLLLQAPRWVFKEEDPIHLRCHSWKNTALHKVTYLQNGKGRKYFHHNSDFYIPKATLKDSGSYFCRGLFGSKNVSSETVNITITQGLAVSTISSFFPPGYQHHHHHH
Protocol: as §1

[6] = molecular target: T6, FcγRIIIa(V) extracellular domain with C-terminal His tag (human, UniProt P08637 17-208); assay: as above
T6 construct: extracellular domain; polymorphic form V158; also called FcγRIIIa V type
T6 sequence (P08637 other isoform, or with tags, fused parts or gaps): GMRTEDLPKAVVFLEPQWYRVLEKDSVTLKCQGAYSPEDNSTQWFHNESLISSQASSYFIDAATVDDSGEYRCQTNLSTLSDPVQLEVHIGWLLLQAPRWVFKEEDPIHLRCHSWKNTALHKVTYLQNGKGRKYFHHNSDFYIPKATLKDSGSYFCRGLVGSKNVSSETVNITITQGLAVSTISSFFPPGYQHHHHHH
Protocol: as §1

[7] = molecular target: T1, FcγRIIa(H) extracellular domain with …; assay: as above; remark: listed apart in the source
Protocol: as §1

[8] = molecular target: T2, FcγRIIb extracellular domain with …; assay: as above; remark: listed apart in the source
Protocol: as §1

[9] = molecular target: T3, FcγRIa extracellular domain with …; assay: as above; remark: listed apart in the source
Protocol: as §1

[10] = molecular target: T4, FcγRIIa(R) extracellular domain with …; assay: as above; remark: listed apart in the source
Protocol: as §1

[11] = molecular target: T5, FcγRIIIa(F) extracellular domain with …; assay: as above; remark: listed apart in the source
Protocol: as §1

[12] = molecular target: T6, FcγRIIIa(V) extracellular domain with …; assay: as above; remark: listed apart in the source
Protocol: as §1

[13] = molecular target: T7, FcγRIa (human, UniProt P12314 16-292); assay: SPR, relative to GpH7-A5/GpH7-B3/GpL16-k0 =100
T7 construct: extracellular domain; also called 1a
T7 sequence (P12314 other isoform, or with tags, fused parts or gaps): as the sequence (P12314 other isoform, or with tags, fused parts or gaps) above

[14] = molecular target: T8, FcγRIIIa (human, UniProt P08637 17-208); assay: SPR, relative to GpH7-A5/GpH7-B3/GpL16-k0 =100
T8 construct: extracellular domain; also called 3a

[15] = molecular target: T9, FcγRIIb (human, UniProt P31994 43-217); assay: SPR, relative to GpH7-A5/GpH7-B3/GpL16-k0 =100
T9 construct: extracellular domain; also called 2b
T9 sequence: T2 sequence

[16] = molecular target: T10, FcγRIIa(H) (human, UniProt P12318 34-217); assay: SPR, relative to GpH7-A5/GpH7-B3/GpL16-k0 =100
T10 construct: extracellular domain; also called 2aH
T10 sequence: T1 sequence

[17] = molecular target: T11, FcγRIIa(R) (human, UniProt P12318 34-217); assay: SPR, relative to GpH7-A5/GpH7-B3/GpL16-k0 =100
T11 construct: extracellular domain; also called 2aR
T11 sequence: T1 sequence with H134R

B1: H240-Kn033/H240-Hl033/L73-k0 (antibody, human IgG1, kappa)
heavy 1: not shown
heavy 2: not shown
light: DIQMTQSPSSLSASVGDRVTITCRASQDIHKYIAWYQQKPGQAPRLLIQYTSTLQPGVPSRFSGSGSGTDYTFTISSLQPEDIATYYCLQYEQLRTFGGGTKVEIKRTVAAPSVFIFPPSDEQLKSGTASVVCLLNNFYPREAKVQWKVDNALQSGNSQESVTEQDSKDSTYSLSSTLTLSKADYEKHKVYACEVTHQGLSSPVTKSFNRGEC
notes: anti-epiregulin IgG1, knobs-into-holes control; also called H240-Kn033/H240-HI033/L73-k0
Kd [1]: 930 nM
Kd [2]: 4100 nM
Kd [3]: 0.25 nM
Kd [4]: 1000 nM
Kd [5]: 2600 nM
Kd [6]: 390 nM
Kd [7]: 930 nM
Kd [8]: 4100 nM
Kd [9]: 0.25 nM
Kd [10]: 1000 nM
Kd [11]: 2600 nM
Kd [12]: 390 nM

B3: H240-Kn125/H240-Hl076/L73-k0 (antibody, human IgG1, kappa)
heavy 1: QDQLVQSGAEVKKPGASVKVSCKASGFNIKDTYIQWVRQAPGQGLEWMGRIDPLRKQTKYREKFEGRVTITADTSTNTAYMELSSLRSEDTAVYYCVRSGREFDYWGQGTLVTVSSASTKGPSVFPLAPSSKSTSGGTAALGCLVKDYFPEPVTVSWNSGALTSGVHTFPAVLQSSGLYSLSSVVTVPSSSLGTQTYICNVNHKPSNTKVDKKVEPKSCDKTHTCPPCPAPEYQWGPMVFLFPPKPKDTLMISRTPEVTCVVVDVSDEEPEVKFNWYVDGVEVHNAKTKPREEQYNATYRVVSVLTVLHQDWLNGKEYKCKVSNKALPAPIEKTISKAKGQPREPQVCTLPPSRDELTKNQVSLWCLVKGFYPSDIAVEWESNGQPENNYKTTPPVLDSDGSFFLYSKLTVDKSRWQQGNVFSCSVMHEALHNHYTQKSLSLSP
heavy 2: QDQLVQSGAEVKKPGASVKVSCKASGFNIKDTYIQWVRQAPGQGLEWMGRIDPLRKQTKYREKFEGRVTITADTSTNTAYMELSSLRSEDTAVYYCVRSGREFDYWGQGTLVTVSSASTKGPSVFPLAPSSKSTSGGTAALGCLVKDYFPEPVTVSWNSGALTSGVHTFPAVLQSSGLYSLSSVVTVPSSSLGTQTYICNVNHKPSNTKVDKKVEPKSCDKTHTCPPCPAPELLGGPSVFLFPPKPKDTLMISRTPEVTCVVVDVSHEEPEVKFNWYVDGVEVHNAKTKPREEQYNSTYRVVSVLTVLHQDWLNGKEYKCKVSNDALPMPIEETISKAKGQPREPQVYTLPPSRCELTKNQVSLSCAVKGFYPSDIAVEWESNGQPENNYKTTPPVLDSDGSFFLVSKLTVDKSRWQQGNVFSCSVMHEALHNHYTQKSLSLSP
light: B1 light
notes: heterodimerized anti-epiregulin IgG1
Kd [7]: 190 nM
Kd [8]: 4200 nM
Kd [9]: 0.24 nM
Kd [10]: 380 nM
Kd [11]: 1.2 nM
Kd [12]: 0.37 nM

B4: H240-Kn032/H240-Hl032/L73-k0 (antibody, human IgG1, kappa)
heavy 1: B3 heavy 1 with Y233L, Q234L, W235G, M238D, D267H, E269D, A297S, A329L, I331E
heavy 2: B3 heavy 2 with S238D, E269D, D325K, M329L, I331E, E333K
light: B1 light
notes: anti-epiregulin IgG1 called homodimerized: S239D/A330L/I332E in both H chains, knobs-into-holes; also called H240-Kn032/H240-HI032/L73-k0
Kd [1]: 690 nM
Kd [2]: 620 nM
Kd [3]: 0.073 nM
Kd [4]: 340 nM
Kd [5]: 9.1 nM
Kd [6]: 3.1 nM
Kd [7]: 690 nM
Kd [8]: 620 nM
Kd [9]: 0.073 nM
Kd [10]: 340 nM
Kd [11]: 9.1 nM
Kd [12]: 3.1 nM

B6: GpH7-A5/GpH7-B3 variant S324_20W/GpL16-k0 (antibody, human IgG1, kappa)
heavy 1: not shown
heavy 2: not shown
light: DIVMTQSPLSLPVTPGEPASISCQASESLVHSNRNTYLHWYLQKPGQSPQLLIYKVSNRFSGVPDRFSGSGSGTDFTLKISRVEAEDVGVYYCSQNTHVPPTFGQGTKVEIERTVAAPSVFIFPPSDEQLKSGTASVVCLLNNFYPREAKVQWKVDNALQSGNSQESVTEQDSKDSTYSLSSTLTLSKADYEKHKVYACEVTHQGLSSPVTKSFNRGEC
notes: He Ab: heterodimerized IgG1, one H chain mutated
He/Con 1a [13]: 108%
He/Con 3a [14]: 111%
He/Con 2b [15]: 114%
He/Con 2aH [16]: 114%
He/Con 2aR [17]: 106%

The remaining lines, values ahead:

Kd [1]: 280 nM
Kd [2]: 1200 nM
Kd [3]: 0.14 nM
Kd [4]: 350 nM
Kd [5]: 5.1 nM
Kd [6]: 1.8 nM
Kd [7]: 280 nM
Kd [8]: 1200 nM
Kd [9]: 0.14 nM
Kd [10]: 350 nM
Kd [11]: 5.1 nM
Kd [12]: 1.8 nM
B2: H240-Kn061/H240-Hl071/L73-k0 (antibody, human IgG1, kappa)
heavy 1: B3 heavy 1 with Q234Y, M238S, E269D
heavy 2: B3 heavy 2 with E269D
light: B1 light
notes: heterodimerized anti-epiregulin IgG1; L234Y/L235Y/G236W/H268D/S298A in Kn061, K326D/A330M/K334E in Hl071; also called H240-Kn061/H240-HI071/L73-k0

He/Con 1a [13]: 97.8%
He/Con 3a [14]: 72.3%
He/Con 2b [15]: 106%
He/Con 2aH [16]: 57.8%
He/Con 2aR [17]: 94.6%
B5: GpH7-A5/GpH7-B3 variant S324_05P/GpL16-k0 (antibody, human IgG1, kappa)
heavy 1: not shown
heavy 2: not shown
light: B6 light
notes: as for B6
